Experimental data taken from the DeepSol protein solubility set.

assay: soluble on expression in E. coli; label from the status in PepcDB or PDB records

Row | Sequence | soluble on expression in E. coli
1 | MSEAAQTLDGWYCLHDFRTIDWSAWKTLPNEEREAAISEFLALVDQWETTESEKQGSHAVYTIVGQKADILFMILRPTLDELHEIETALNKTKLADYLLPAYSYVSVVELSNYLASGSEDPYQIPEVRRRLYPILPKTNYICFYPMDKRRQGNDNWYMLSMEQRRELMRAHGMTGRKYAGKVTQIITGSVGLDDFEWGVTLFSDDALQFKKLVYEMRFDEVSARFGEFGSFFVGTRLPMENVSSFFHV | soluble
2 | MSEDSELIEQVIEQPDSLIISPPSDSSSSSYNHIQPFVYLESTATTQTNHNVLLILNQKITIDLISLWKKCEIIVCADGGANSLYEYFNDNNHHHHHENLQRSDYIPDYIVGDFDSISPDVKTYYESHGSKIIRQSSQYYNDFTKSIHCIQLHYQLNHTKENWFESIDEVDGLAKLWNGLNNSSDVVVDIDITIYVLNAIGGRFDQTVQSINQLYIMNEDYPKVTVFFITTNDIIFLLKKGVNYISYKNRLMFHKDNGSSPTPTCGLLPLSNKTPIILNSYGLKYDMRNWKTEMLGQVSSSNRISGETGFIVECSDDIVMNIEIDV | soluble
3 | MSEEKQTVEQNETEEQEIIEEQAAADEQQEETNESELLQNQINELQGLLEEKENKLLRVQADFENYKRRSRLEMEASQKYRSQNIVTDLLPALDSFERALQVEADNEQTKSLLQGMEMVHRQLVEALKKEGVEAIEAVGQEFDPNLHQAVMQAEDENYGSNIVVEEMQKGYKLKDRVIRPSMVKVNQ | not soluble
4 | MSEEKYNYLDMHLSRKGSIYDSLIHLKPDNENKFGLDENSDICRTLSNYADYSTKKVKYFVNKRFSEIENIEKNIEDIDYSAFKYFRTLPPKYSDENDIRNNIIFNNNNIYIYAENKNGTLNEQACISISPDNNIIYCSTKGRRYTIGGHAGIQKNLNNEYNFLDENNFISPQNSIKTYTYDALDSSDLSSSFPKMNLIKTNDVLDDTNTNRINTANIFNEHIIMNSCESSNLNTTKCLSKNLSVQKLFKYYKKCSQDLEHEQRICKPCAHVYNGSTCMNGDECSFCHHPDHVLISAKKWKKLVKNNMEKLNILLHILRNPDDVNANFLNEMIKQNTKNFKKNKKINNIKNNTIINMYNQNIRHSNSNNNTINDMNNNNINKRHNKNRIFYFPQRNTDNILRPPYNNYESNETTDMYKNNYQVRNCNFSPYHMNM | not soluble
5 | MSEEPAAKRMKNADEFPNLRSEVAGPVKEKLIELDAIQHQLDVMSENAAEEVLKVEQIFNQKRLPIYEKRKKLTTKIDNFWQTAFLNHHLLSTAIPEEQEDLLAALRDLEVQEFEDLRSGFKIIMTFDPNEYFTNEVITKSYHLQSESPSTEITEIEWKENKKPPFKPEDGDSAHTFLEWLTYAALPDSDEIAEVIKDDLYVNPLQYYVMPDMQEVEEDDIEDFLNEERGVDENGQRIPRRNISDSLKVDQDESADGQEGEDEEEEDMGEEEEDGVEEEAEGEEEEEDGAIEEEGGDENVEAHVAVNPENTAE | soluble
6 | MSEFLPFSRPAMGVEELAAVKEVLESGWITTGPKNQALEQAFCQLTGNQHAIAVSSATAGMHITLMALKIGKGDEVITPSLTWVSTLNMISLLGATPVMVDVDRDTLMVTPEAIESAITPRTKAIIPVHYAGAPADIDAIRAIGERYGIAVIEDAAHAVGTYYKGRHIGAKGTAIFSFHAIKNITCAEGGLIVTDNENLARQLRMLKFHGLGVDAYDRQTWGRAPQAEVLTPGYKYNLTDINAAIALTQLVKLEHLNTRRREIAQQYQQALAALPFQPLSLPAWPHVHAWHLFIIRVDEQRCGISRDALMEALKERGIGTGLHFRAAHTQKYYRERFPTLSLPNTEWNSERICSLPLFPDMTTADADHVITALQQLAGQ | soluble
7 | MSEIDLTSEYSCSKHSKNPETAGEEFDVKVEKIYEDLKNSSIERQEDIPYFPNGEMTRIDIWGPETAEKVFIMIHGGYWLIGNRKKCLAVVHVAQKLGYTVVSVGYDYANKDHVLSKTIVEALEGVQFALKKFKNAKKIVIGGHSVGAHLAFQAVTRIHDPRISGAYLSAGIYKIQELTSTTYGHDLGLTSEEAETCSCDYELMKHVRFPVLIACCRRESPKLYQQNQDFSSQVANAQYKV | not soluble
8 | MSEKLRRCRKELTAAIDRAFEGVRHSQECTAQQRLDAPSLTSQPVHRLLCRNPLAACPSAAPYSGASCAPESENPAFGTHHIPVNSKLQQPLYPKRKPLTSKENVLMQSSILARDRQFWRAAGDGEDWRKDSLRKDMERDLKADPNVLLSSSSQEVTKDLLDMIDHTSIRTIEELAGKLEFENELNRVCGHCQDSPFKEEAWALLVDESPQKALDADPGSLKQALDDQNIVETVLDLEEDYNLMTSFKYQIE | soluble
9 | MSELNALLKDINGSLTATSESLERLSGIYSNSATDEIPESNQLHEHLFYDAKKPAEKVSLLSLKNGSMLGYINSLLMLIGNRLDDECKDPSAMDARERSIQHRVVLERGVKPLEKKLAYQLDKLTRAYVKMEKEYKDAEKRALEKSTLVNHSGNDDSEDDESSEDEIAYRPNTSGIINTNKKSSAYRVEETAKQENGEENDDNETGVYKPPKITAVLPPQQTHFEDRFDAREHKDRSNKSRMQAMEEYIRESSDQPDWSASIGADIVNHGRGGIKSLRDTEKERRVTSFEEDNFTRLNITNKAEKRKQKQRERNARMNVIGGEDFGIFSSKRKLEDSTSRRGAKKTRSAWDRAQRRL | soluble
10 | MSELSQLSPQPLWDIFAKICSIPHPSYHEEQLAEYIVGWAKEKGFHVERDQVGNILIRQPATAGMENRKPVVLQAHLDMVPQKNNDTVHDFTKDPIQPYIDGEWVKARGTTLGADNGIGMASALAVLADENVVHGPLEVLLTMTEEAGMDGAFGLQSNWLQADILINTDSEEEGEIYMGCAGGIDFTSNLHLDREAVPAGFETFKLTLKGLKGGHSGGEIHVGLGNANKLLVRFLAGHAEELDLRLIDFNGGTLRNAIPREAFATIAVAADKVDALKSLVNTYQEILKNELAEKEKNLALLLDSVANDKAALIAKSRDTFIRLLNATPNGVIRNSDVAKGVVETSLNVGVVTMTDNNVEIHCLIRSLIDSGKDYVVSMLDSLGKLAGAKTEAKGAYPGWQPDANSPVMHLVRETYQRLFNKTPNIQIIHAGLECGLFKKPYPEMDMVSIGPTITGPHSPDEQVHIESVGHYWTLLTELLKEIPAKLEHHHHHH | soluble
11 | MSELTIGLILPDVLGTYGDDGNALVLRQRARLRGISAEIHTVRLGEAVPEGLDLYCLGGGEDTAQILAAEHLNNDRGLRRAADSGRPILGICAGLQVLGRSFRASGKIVEGVGLIDATTASLAKRTIGELQSTPTAAGFTAELTEPLTGFENHMGATILGPDAQPLGAVTRGVGNTDLHGITTASVSDEQVSYEGAVQGNVVCTYMHGPALARNPQLADLLLAKAMGIALADLAPLDLPVVDQLRKERLA | not soluble
12 | MSENNKIILYQDDNEIIRVSVRFSDEDLWLTQNQLAEIYCTTQQNISQHVDNIYKDGELFTEATNKKFLLVRQEGNRQVRRNIDHYNLDMVIALGYRVQSQVATRFRRWATQRLHEYIQKGFAMDDERLKQGGNRYFRELLQRIRDIRSSERNFYQQVTDIYATATDYDPRDEMTKMFFATVQNKLHYAVHENTAAEVIYNRVDNEKPFVGMTNFKGNYVTKDDVKIAKNYLSEIELQRLNLLVSGFLDFAEFQALEMNPMTMKDWIEALDNQIIAHKRKVLIDKGRISHKQAIEKAEKEFAIYRKREMDLLESDFDKEIKRLKDKNDNNPN | not soluble
13 | MSEPTYFMPPEWAPHASTWLSWPHKLESWPGKFEPVPAVFAELAYQLSRSETVNINVLDDAMEAQARELLKERDPEGKYAERIVFHRIPTNDAWCRDHGPNYVIRTQDGRRDKVIMNWEYNAWGGKYEPYDDDNAVPERVAKAQGLPMVSTGMVLEGGAIDVNGAGLLLTTTACLLNPNRNPSLGKAEIEAQLRRYLGIEKVLWLGDGIAGDDTDGHVDDMARFVNENTVVIAVEEDPEDENYKPLRENYELLKTMTGLDGKPLNIVKLPMPEPVYYDGERLPASYANFYIANTVVLVPTYRCPRDQQAIDILQQCFPKREVVGIDCSDLIWGLGAIHCVTHEEPAMLEHHHHHH | soluble
14 | MSEQITFATSDFASNPEPRCPCILLLDVSGSMSGRPINELNTGLVTFRDELLADSLALKRVELGIVTFGPVHVEQPFTSAANFFPPILFAQGDTPMGAAITKALDMVEERKREYRANGISYYRPWIFLITDGAPIDEWQAAANKVFRGEEDKRFAFFSIGVQGADMKTLAQISVRQPLPLQGLQFRELFSWLSSSLRSVSRSTPGTEVVLEAPKGWTSV | not soluble
